Assay results reported in publication PMC2120351 (The Journal of Cell Biology, 1995).

Columns and labels:
[1] = target: T1, recombinant whole p62 (rat nucleoporin p62 expressed in E. coli) (rat, UniProt P17955 1-525); experiment: far-Western, overlay or dot blot
T1 sequence: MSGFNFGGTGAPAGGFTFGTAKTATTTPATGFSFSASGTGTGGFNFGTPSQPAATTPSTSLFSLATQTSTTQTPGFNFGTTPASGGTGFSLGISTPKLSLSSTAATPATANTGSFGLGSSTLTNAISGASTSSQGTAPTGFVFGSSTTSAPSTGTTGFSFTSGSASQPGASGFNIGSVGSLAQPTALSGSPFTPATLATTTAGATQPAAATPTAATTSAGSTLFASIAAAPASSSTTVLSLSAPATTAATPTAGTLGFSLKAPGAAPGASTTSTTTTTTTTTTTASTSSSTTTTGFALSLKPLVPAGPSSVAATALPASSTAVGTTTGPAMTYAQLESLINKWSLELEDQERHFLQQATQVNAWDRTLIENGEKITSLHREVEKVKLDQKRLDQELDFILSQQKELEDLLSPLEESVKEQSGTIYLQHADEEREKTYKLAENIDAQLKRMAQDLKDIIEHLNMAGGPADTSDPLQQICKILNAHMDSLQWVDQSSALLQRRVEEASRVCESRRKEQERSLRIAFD

[2] = target: the molecule itself; experiment: far-Western, overlay or dot blot

binding result [1]: binds
B1: recombinant p62 rod domain (domain or fragment)
chain: MTYAQLESLINKWSLELEDQERHFLQQATQVNAWDRTLIENGEKITSLHREVEKVKLDQKRLDQELDFILSQQKELEDLLSPLEESVKEQSGTIYLQHADEEREKTYKLAENIDAQLKRMAQDLKDIIEHLNMAGGPADTSDPLQQICKILNAHMDSLQWVDQSSALLQRRVEEASRVCESRRKEQERSLRIAFD
binding result [2]: binds
